Earlier results in article PMC3283658.

Biological target: IL-15Rβγ (Homo sapiens) (UniProt P14784)
Sequence of UniProt P14784 (P14784 27-240, chain 1 of 2): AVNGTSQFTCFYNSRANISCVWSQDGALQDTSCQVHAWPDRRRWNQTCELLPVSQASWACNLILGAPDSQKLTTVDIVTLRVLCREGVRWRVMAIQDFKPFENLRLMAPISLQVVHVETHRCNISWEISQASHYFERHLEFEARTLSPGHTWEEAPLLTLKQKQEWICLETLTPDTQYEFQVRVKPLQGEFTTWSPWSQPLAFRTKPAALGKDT
Sequence of UniProt P14784 (P31785 23-262, chain 2 of 2, further chain): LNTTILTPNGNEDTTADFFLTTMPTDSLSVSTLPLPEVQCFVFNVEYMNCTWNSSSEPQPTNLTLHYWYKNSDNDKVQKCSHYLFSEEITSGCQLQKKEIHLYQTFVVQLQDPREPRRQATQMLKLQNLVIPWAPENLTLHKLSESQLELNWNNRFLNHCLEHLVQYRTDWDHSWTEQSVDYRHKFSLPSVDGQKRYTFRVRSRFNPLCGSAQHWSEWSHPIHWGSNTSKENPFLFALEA

- Kd: 4 nM
Substance: IL-15 (from UniProt P40933)
